Sequences and labels used below:
B1: TPR t1 (parent)
chain: GACCAAUCUGCCCUCAGAGCUCGAGAACAUCUUCGGAUGCAGAGGAGGCAGGCUUCGGUGGCGCGAUAGCGCCAACGUCCUCAACCUCCAAUGCAUCCCACCACAUGAUGAUGCCUGAAGAGCCUUGGUUUUUUG

The variants in this data set derive from B1. In words: polymerase ribozyme fitness, log enrichment relative to wild type (log ratio); higher = more active; in vitro selection for triplet polymerase activity. In short, it runs like this: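 Fitness is a logarithmic measure of how a genotype enriched relative to the wild type, with replicate averages weighted by inverse variance. The logarithm uses base 2, and enrichment came from Illumina sequencing of input and output libraries. Those libraries were PCR-built, transcribed mutants of each subunit of a heterodimeric triplet polymerase ribozyme, passed through one triplicate in vitro selection round that included frozen incubation at −7 °C, gel excision of extended constructs and streptavidin-bead capture. Genotypes were kept only if they had ≥10 input reads and ≥1 read per output.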
Turning to C49U C82G, the “polymerase ribozyme fitness (log ratio)” value was -0.241.
The value for C49U C82U was -0.598; that for C49U C82A was -0.514; that for C49G A74C G113A was -2.39.
As for C49G C70U, the figure is -1.3; as for G48A U59A G69C A84U A118C, -3.45; as for A50U A74G, -1.27.
For the variant C49A C82A G110A, the “polymerase ribozyme fitness (log ratio)” value is -1.04.
As for A50G U54C G63U C88U U130G, the figure is -2.9.
The value for C49G G120U C124A G135U was -1.63; that for G48C C49G U54C A95C G117A was -2.24; that for G48C A91C U92G G120A C124U U130C was -1.63.
The value for C49U C53U C89U was -0.369; that for C49U G71A U130C was -1.63.
For A50G A83C C123U, the “polymerase ribozyme fitness (log ratio)” value was -0.187.
The value for A50U G51C C73U was -3.52; that for A50C C53U C97U was -1.01; that for C49A G51U G52U A90G A119U was -2.42.
In the case of C49G C56A, the “polymerase ribozyme fitness (log ratio)” value was -2.63.
For A50G C62A C99U, the “polymerase ribozyme fitness (log ratio)” value was -6.11.
For the variant C49U C73U U78C G110U, the “polymerase ribozyme fitness (log ratio)” value is -2.87.
On to C49U C82U A121U G127A, for which the “polymerase ribozyme fitness (log ratio)” value is 0.337.
Consider G48A U87A G120C C124G, for which the “polymerase ribozyme fitness (log ratio)” value was 0.521.
On to G48C C72U A90G U132A, for which the “polymerase ribozyme fitness (log ratio)” value was -0.935.
As for C49A C53A C70U C86A U112G G128A, the “polymerase ribozyme fitness (log ratio)” value is -5.42.
C49U G51U C62U C80A G113A C124A: the “polymerase ribozyme fitness (log ratio)” value was -3.94.
As for G48C A75G, the figure is -0.575; as for C49G G60C A119U U133A, -2.93.
As for C49U C123G G128C, the “polymerase ribozyme fitness (log ratio)” value was -1.69.
The value for G48U C73U was -1.06; that for C49A U81C was -2.67; that for C49G G60U G110A was -1.76.
The value for C49U C124U was 1.03; that for A50G C53A C72A G93C U109G was -5.37.
As for G48C C49A C88U A95G, the “polymerase ribozyme fitness (log ratio)” value was -0.72.
As for A50C C72G G127A, the figure is -2.8.
The value for G48C C62A G65U U78C U130C was -4.95; that for A50C U87G G120C U131A was 0.982.
Consider C49A C64U A66C C80A G117A, for which the “polymerase ribozyme fitness (log ratio)” value was -7.53.
Turning to A50C G63U U81A, the “polymerase ribozyme fitness (log ratio)” value is -1.63.
As for C49A U92G, the “polymerase ribozyme fitness (log ratio)” value is -3.98.
With C49A U92C, the “polymerase ribozyme fitness (log ratio)” value is -1.43.
Turning to A50U G60U U125G U129C, the “polymerase ribozyme fitness (log ratio)” value is -3.19.
Consider C49G G57A U109A, for which the “polymerase ribozyme fitness (log ratio)” value was -6.29.
As for C49U G128C, the figure is -2.44; as for C49A G69A G77A G122A, -4.61; as for C49A C62U A66G, -1.75.
The value for C49A U81A A90U C123U was -1.24; that for C49U C70G was -3.77; that for A50G G63U U130A was -2.47.
The value for C49G C79U U96G was -0.996.
Regarding G48C C94G C115U, the “polymerase ribozyme fitness (log ratio)” value is -3.03.
On to A50C G110A, for which the “polymerase ribozyme fitness (log ratio)” value was -2.37.
The value for C49G G127A was -1.65.
As for C49G G65U, the figure is -4.97.
As for A50G G63A, the “polymerase ribozyme fitness (log ratio)” value was -0.747.
As for C49U A66G C73A C101A G128A, the figure is -4.92; as for C49A A83C A84U, -0.775; as for A50C G61U C79G U129C, -2.24.
On to G48U C49U G60C A84U U129A U134G, for which the “polymerase ribozyme fitness (log ratio)” value was -1.92.
As for A50U C76A C82U, the figure is -1.67; as for C49G G61A, -0.914; as for C49U G61A U96A, -0.582.
As for G48U G71C, the “polymerase ribozyme fitness (log ratio)” value was -1.77.
As for C49A A74G, the figure is -0.173.
With A50C C82U G117U, the “polymerase ribozyme fitness (log ratio)” value is -2.93.
As for C49G C85G, the figure is -2.67; as for C49G C56G U87A G117A, -4.51.
As for G48C C49U U106G, the figure is -2.77; as for C49A U112A, 1.49; as for G48C G93A C99A G113C, -7.38.
As for C49A C64U, the “polymerase ribozyme fitness (log ratio)” value was -0.082.
As for G48U C89A U130A, the “polymerase ribozyme fitness (log ratio)” value is -2.33.
For the variant G48C C62A G63U A121G, the “polymerase ribozyme fitness (log ratio)” value is -4.74.
The value for C49G C123U was 0.717; that for C49G U112C G113A was -2.11.
For C49G G63U U130G, the “polymerase ribozyme fitness (log ratio)” value was -2.28.
As to A50U C79U, the “polymerase ribozyme fitness (log ratio)” value was -1.76.
As for G48U C73G A95G, the “polymerase ribozyme fitness (log ratio)” value was -1.55.
The value for C49G A50U C72A C94A was -2.42; that for G48U C79G was -3.52.
For the variant G48C G71U, the “polymerase ribozyme fitness (log ratio)” value was -2.47.
As for G48C G71A, the figure is -1.65; as for C49U A50G G71U A105U, -4.83; as for G48C C49U U59A, -1.34.
The value for G48U U87G U133G was -0.334; that for G48C G135U was -1.05.
Take A50C G60C C64A A103G C104A C124U: the “polymerase ribozyme fitness (log ratio)” value was -5.11.
The value for C49A G71U G120U was 0.255.
As for A50U G58C G71C C104A C124A, the figure is -3.2; as for G48C C56U G77A G110A, -2.29; as for A50C C72A C124U U130A, 0.593.
Consider C49G G77A U112G, for which the “polymerase ribozyme fitness (log ratio)” value is -0.318.
For the variant G48C C79U C101A, the “polymerase ribozyme fitness (log ratio)” value was -1.57.
As for A50C C56G, the figure is -0.303; as for C49G U55G U129A, -1.82; as for C49G C62U, -0.813.
The value for C49G U55G was -1.16.
The value for C49A A50C C56A C79A U132A was -3.18; that for C49U C56A A68G was -5.08; that for A50C G71U C101G was -2.67.
Take A50C G71A C79G C104A: the “polymerase ribozyme fitness (log ratio)” value was -5.88.
Take G48U C72G C86A U125G G127C: the “polymerase ribozyme fitness (log ratio)” value is -4.47.
As for C49G C76U U87C, the figure is -1.3.
For C49U U59A U78C A84G, the “polymerase ribozyme fitness (log ratio)” value is -1.51.
As for A50C C53U C56A, the figure is -0.754; as for C49A C53G C73U A74G A100U, -2.75; as for A50U A111G, -0.837.
The value for C49U U106A U126A was -2.78.
As to C49A G93U U125A U131G, the “polymerase ribozyme fitness (log ratio)” value is -2.24.
As for C49A C62G C76U, the figure is -5.79; as for C49G G52A C82G A84G A121U, 0.784; as for A50C U55C U106G, -2.2.
In the case of A50G C79A U96C, the “polymerase ribozyme fitness (log ratio)” value is -2.32.
In the case of C49G G61U C88A, the “polymerase ribozyme fitness (log ratio)” value was -1.08.
Consider A50C C115U, for which the “polymerase ribozyme fitness (log ratio)” value is -1.47.
As to C49U C53U C97U, the “polymerase ribozyme fitness (log ratio)” value was -1.14.
On to C49U C97U, for which the “polymerase ribozyme fitness (log ratio)” value is -1.01.
For G48U G93C A121G, the “polymerase ribozyme fitness (log ratio)” value came to 0.759.
As for C49U C102G C104A C124A U130A, the figure is -4.4; as for C49U C76G G113A, -1.81.
With A50C C97G, the “polymerase ribozyme fitness (log ratio)” value was -6.04.
Consider G48C C49G A84U C124U, for which the “polymerase ribozyme fitness (log ratio)” value was -1.8.
As to A50U C85A, the “polymerase ribozyme fitness (log ratio)” value is -2.11.
C49U G120A: the “polymerase ribozyme fitness (log ratio)” value came to 0.0229.
With C49G C72G G120C, the “polymerase ribozyme fitness (log ratio)” value is -0.782.
The value for C49A C62G was -2.22; that for A50C A66C A100U was -3.95.
Consider C49U A66C C86G C88U U92A C114U, for which the “polymerase ribozyme fitness (log ratio)” value is -5.32.
The value for G48U G61U G93U U112A C124A was -0.694; that for C49G G57U G63A A119G U133G was -0.878.
As for A50G U78G, the figure is 0.0351.
For the variant G48U C72A G113C, the “polymerase ribozyme fitness (log ratio)” value is -2.2.
As for G48U U78C U92A A105U A121U, the figure is -5.76.
C49A C56U G120C U131G: the “polymerase ribozyme fitness (log ratio)” value was 1.43.
As for G48U G71A C123A U126A, the figure is -2.04.
A50C U59C C86U: the “polymerase ribozyme fitness (log ratio)” value was -0.825.
With C49U U81G U96C, the “polymerase ribozyme fitness (log ratio)” value was -4.63.
With A50U C64U C70U, the “polymerase ribozyme fitness (log ratio)” value was -5.2.
The value for A50U C115A was -0.803.
For C49A G122A, the “polymerase ribozyme fitness (log ratio)” value is -0.428.
With G48U U55G G69C G93U, the “polymerase ribozyme fitness (log ratio)” value is -2.93.
The value for A50C U129A was -1.83; that for C49G C64A G77U A83U G120U was -6.63; that for G48U C88G U96A was -3.43.
Regarding C49A U133A, the “polymerase ribozyme fitness (log ratio)” value is -0.928.
As to A50C U130A, the “polymerase ribozyme fitness (log ratio)” value was -0.352.
On to G48U C102U, for which the “polymerase ribozyme fitness (log ratio)” value is -3.66.
For A50U C101G U106A A118G C124A, the “polymerase ribozyme fitness (log ratio)” value turned out to be 0.335.
As for C49G A95U A111G, the figure is -0.422; as for A50U C73A C80G C85A A90G G127U, -2.82.
As for A50U G52C A83C, the figure is -2.39; as for C49G C101A, -1.3.
Turning to G48C C56U C85U U126G, the “polymerase ribozyme fitness (log ratio)” value is -2.57.
The value for C49U G113U G117U was -5.67; that for A50U C114A was -3.11; that for G48U C79U G135C was -1.81.
Turning to G48U G57A C101U C124G, the “polymerase ribozyme fitness (log ratio)” value worked out at 0.412.
The value for G48C G110A was -1.41.
The value for A50U A84G was -3.04; that for A50C U87C was -0.237.
As to G48U G52U C73U A90U C124G, the “polymerase ribozyme fitness (log ratio)” value was -1.99.
For G48U G120C, the “polymerase ribozyme fitness (log ratio)” value is -0.358.
As to G48U C56A, the “polymerase ribozyme fitness (log ratio)” value was -1.75.
Consider G48U C56U, for which the “polymerase ribozyme fitness (log ratio)” value is -0.606.
The value for C49A C56U was 0.0901.
As for C49A U81A U87G, the figure is -0.13.

The values are drawn from the RNAGym collection of RNA variant scans (doi:10.1073/pnas.2313332121).
